Laboratory results from patent US20240010735A1 (EISAI R AND D MANAGEMENT, published 2024).

B1: humanized anti-EphA4 monoclonal antibody (antibody B) (antibody, human IgG2, V domains shown)
VH: QVQLVESGGGVVQPGRSLRLSCAVSGFSLTRFGVHWVRQAPGKGLEWVAVIWRGGSTDYNAAFMSRLTISKDNSKNTVYLQMNSLRAEDTAVYYCAKESLFGVYYDYGYYSMDYWGQGTTVTVSS
VL: DIQMTQSPSSLSASVGDRVTITCRASQEISGYLSWLQQKPGKAPKRLIYAASTLDSGVPSRFSGSRSGTEYTLTISSLQPEDFATYYCLQYASYPLTFGGGTKVEIKR
notes: expressed in Expi293F cells; also called humanized antibody of antibody A; HK2-42 / L1-8
B2: mouse anti-EphA4 monoclonal antibody (antibody A) (antibody, mouse IgG1, kappa, V domains shown)
VH: QVQLKQSGPSLVQPSQSLSITCTVSGFSLTRYGVHWVRQSPGKGLEWLGVIWRGGSTDYNAAFMSRLSITKDNSKSQVFFKMNSLQADDTAIYYCAKESLFGVYYDYGYYSMDYWGQGTSVTVSS
VL: DIQMTQSPSSLSASLGERVSLTCRASQEISGYLSWLQQKPDGTIKRLIYAASTLDSGVPKRFSGSRSGSDYSLTISSLESEDFADYYCLQYASYPLTFGAGTKLELKR
notes: purified from hybridoma supernatant

Experiments:
[1] = target: T1, mouse EphA4 extracellular region-SEAP-His protein (mouse); test: competition ELISA; captured mouse EphA4 extracellular region-SEAP-His, competitor biotinylated mouse EphrinB2-Fc chimera (2.5 nM)
T1 construct: also called mouse EphA4 extracellular region-SEAP-His 10
Protocol: Anti-alkaline phosphatase antibodies (Thermo […]) were coated onto the wells of a 96-well plate (Nunc). After incubating at 4° C. overnight, the wells were blocked at room temperature for 1 hour by 1% Block Ace (DS Pharma Biomedical). After washing 3 times with 0.02% Tween 20/PBS (Thermo […]), mouse EphA4 extracellular region-SEAP-His protein was added to the wells (final concentration 10 nM), and incubated at room temperature for 1 hour. After washing 3 times, the ligand and antibody A (0, 0.003, 0.01, 0.03, 0.1, 0.3, 1, 3, 10, 30, 100, 300, 1000, 3000 nM) were supplemented to the wells. Note that biotinylated mouse EphrinA1-Fc chimera (R&D Systems, final concentration 6 nM) and biotinylated mouse EphrinB2-Fc chimera (R&D Systems, final concentration 2.5 nM) were employed as ligands. After incubating at room temperature for 1 hour and washing 3 times, horseradish peroxidase-labeled streptavidin (GE Healthcare) was added, and incubated at room temperature for 1 hour. After washing 3 times, TMBZ (3,3′, 5,5′-tetramethylbenzidine, Sigma) solution was added to the wells, and incubated at room temperature for 2 minutes. An equal amount of quenching solution (1 N H₂SO₄, Wako Pure Chemicals) was added to the wells, and absorbance at 450 nm was read by a microplate reader (PerkinElmer). […]

[2] = target: T2, monkey EphA4 extracellular region-Fc-His protein (monkey; human); test: ELISA: EphA4 extracellular region-Fc-His (1 nM) captured on anti-human IgG antibody, antibody A titrated with human IgG 100 µg/mL, HRP anti-mouse IgG, OD450 as % of top concentration
T2 construct: not shown: Fc region of human IgG1; histidine tag
Protocol: (§1) Donkey anti-human IgG antibodies (Jackson ImmunoResearch Laboratories) were coated onto the wells of a 96-well plate (Nunc). After incubating at 4° C. overnight, the wells were blocked at room temperature for 1 hour by 1% Block Ace (DS Pharma Biomedical). After washing 3 times with 0.05% Tween 20/PBS (Thermo […]), mouse, rat, monkey, and human EphA4 extracellular region-Fc-His proteins (final concentration 1 nM) were seeded into the wells, and incubated at room temperature for 1 hour. After washing 3 times, human IgG solution (100 μg/mL, Mitsubishi Pharma Corporation) and antibody A (0, 0.00013, 0.00064, 0.0032, 0.016, 0.08, 0.4, 2, 10, μg/mL) were supplemented to the wells, and incubated at room temperature for 1 hour. Horseradish peroxidase-labeled donkey anti-mouse IgG antibody (Jackson ImmunoResearch Laboratories) was added, and incubated at room temperature for 1 hour. After washing 3 times, TMBZ (3,3′,5,5′-tetramethylbenzidine, Sigma) solution was added to the wells, and upon confirmation of modest coloring, an equal amount of quenching solution (1 N H₂SO₄, Wako Pure Chemicals) was added to the wells, and absorbance at 450 nm was read by a microplate reader (PerkinElmer).

[3] = target: T3, human EphA4 extracellular region-Fc-His protein (human, UniProt P54764 20-547); test: as above
T3 construct: not shown: Fc region of human IgG1; histidine tag
Protocol: as §1

[4] = target: T4, rat EphA4 extracellular region-Fc-His protein (rat; human, UniProt D3ZZK3 20-547); test: as above
T4 construct: range 20-547; also called rat EphA4 extracellular region-Pc-His protein; not shown: Fc region of human IgG1; histidine tag
Protocol: as §1

[5] = target: T5, mouse EphA4 extracellular region-Fc-His protein (mouse; human, UniProt Q03137 20-547); test: as above
T5 construct: Used as culture supernatant of transfected cells; not shown: Fc region of human IgG1; histidine tag
Protocol: as §1

T1 sequence (chain, as listed by the source limits assumed): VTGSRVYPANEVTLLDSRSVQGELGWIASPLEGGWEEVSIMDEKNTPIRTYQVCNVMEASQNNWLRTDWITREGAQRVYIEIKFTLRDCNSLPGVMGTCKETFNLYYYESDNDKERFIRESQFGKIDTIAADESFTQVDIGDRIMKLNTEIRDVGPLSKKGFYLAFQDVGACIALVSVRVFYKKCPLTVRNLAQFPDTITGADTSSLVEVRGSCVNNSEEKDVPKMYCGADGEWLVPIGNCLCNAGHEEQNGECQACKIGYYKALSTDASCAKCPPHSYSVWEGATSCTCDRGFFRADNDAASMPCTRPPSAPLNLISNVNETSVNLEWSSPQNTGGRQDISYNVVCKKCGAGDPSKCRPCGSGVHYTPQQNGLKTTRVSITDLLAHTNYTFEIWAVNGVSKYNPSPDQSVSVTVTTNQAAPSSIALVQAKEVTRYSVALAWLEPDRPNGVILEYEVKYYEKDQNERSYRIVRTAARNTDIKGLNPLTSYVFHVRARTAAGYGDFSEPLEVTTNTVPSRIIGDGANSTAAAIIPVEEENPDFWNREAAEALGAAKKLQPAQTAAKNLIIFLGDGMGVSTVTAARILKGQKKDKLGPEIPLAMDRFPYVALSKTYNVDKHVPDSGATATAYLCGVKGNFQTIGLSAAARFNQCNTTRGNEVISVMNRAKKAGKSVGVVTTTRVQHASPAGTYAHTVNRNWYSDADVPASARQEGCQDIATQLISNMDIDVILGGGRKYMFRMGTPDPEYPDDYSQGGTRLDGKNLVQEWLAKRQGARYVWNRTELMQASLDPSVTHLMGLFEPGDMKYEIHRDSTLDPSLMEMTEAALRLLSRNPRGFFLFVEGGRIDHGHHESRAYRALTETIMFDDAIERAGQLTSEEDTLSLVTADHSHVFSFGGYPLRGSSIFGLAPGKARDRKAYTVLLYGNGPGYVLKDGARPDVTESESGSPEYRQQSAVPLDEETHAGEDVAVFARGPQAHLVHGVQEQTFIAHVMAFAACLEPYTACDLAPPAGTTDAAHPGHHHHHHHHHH
T5 sequence (Q03137 20-547): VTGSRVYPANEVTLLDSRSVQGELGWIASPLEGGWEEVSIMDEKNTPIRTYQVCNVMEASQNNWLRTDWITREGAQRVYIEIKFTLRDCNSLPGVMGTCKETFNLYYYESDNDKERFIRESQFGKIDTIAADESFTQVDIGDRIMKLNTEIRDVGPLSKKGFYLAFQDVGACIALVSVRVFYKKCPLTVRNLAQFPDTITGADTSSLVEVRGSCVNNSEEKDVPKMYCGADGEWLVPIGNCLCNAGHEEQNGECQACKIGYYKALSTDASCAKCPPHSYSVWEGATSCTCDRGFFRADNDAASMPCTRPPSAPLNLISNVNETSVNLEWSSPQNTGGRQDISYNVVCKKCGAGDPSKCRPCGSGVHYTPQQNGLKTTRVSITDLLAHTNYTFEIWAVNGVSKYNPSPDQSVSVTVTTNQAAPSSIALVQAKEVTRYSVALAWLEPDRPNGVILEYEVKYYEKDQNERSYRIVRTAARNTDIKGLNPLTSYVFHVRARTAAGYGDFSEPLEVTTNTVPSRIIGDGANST
T3 sequence (P54764 20-547): as the sequence (Q03137 20-547) above, with A59P, S121N, G124V, Q250R, N251S, S270T, R378K, S406N counted along it
T2 sequence (chain, as listed by the source): as the sequence (Q03137 20-547) above, with A59P, S121N, G124V, Q250R, N251S, S270T, R378K counted along it

Row | Binder | IC50 [1] [nM] | EC50 (read off the curve) [2] [nM] | EC50 (read off the curve) [3] [nM] | EC50 (read off the curve) [4] [nM] | EC50 (read off the curve) [5] [nM]
1 | B1 | ~4.2 | – | – | – | –
2 | B2 | ~3.1 | ~0.1 | ~0.1 | ~0.1 | ~0.1
